Reference: publication PMC10464304, “Refined read‐out: The hUHRF1 Tandem‐Tudor domain prefers binding to histone H3 tails containing K4me1 in the context of H3K9me2/3” (Protein Science : A Publication of the Protein Society, 2023)
No end group written: not given here. Me3 = trimethyl (trimethyl-lysine)

T1: GST-fused Tandem-Tudor domain (TTD) of human UHRF1, residues 126-280, wild type (human, UniProt Q96T88 126-280)
T1 construct: Tandem Tudor domain (TTD) of human UHRF1, UniProt Q96T88, residues 126-280; borders as in Rothbart et al., 2012; also called hUHRF1-TTD; UHRF1-TTD; source: E. coli, purified (Glutathione Agarose 4B); not shown: GST, N-terminal, kept
T1 sequence (looked up): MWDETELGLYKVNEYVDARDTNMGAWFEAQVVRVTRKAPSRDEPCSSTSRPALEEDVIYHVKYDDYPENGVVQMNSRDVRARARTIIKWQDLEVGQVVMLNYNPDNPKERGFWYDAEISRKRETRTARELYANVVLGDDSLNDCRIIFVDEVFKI

T2: GST-hUHRF1-TTD (126-280) R207Q (human, UniProt Q96T88 126-280, R207Q)
T2 construct: Tandem Tudor domain (TTD) of human UHRF1, UniProt Q96T88, residues 126-280; source: E. coli, purified (Glutathione Agarose 4B); not shown: GST, N-terminal, kept
T2 sequence (looked up): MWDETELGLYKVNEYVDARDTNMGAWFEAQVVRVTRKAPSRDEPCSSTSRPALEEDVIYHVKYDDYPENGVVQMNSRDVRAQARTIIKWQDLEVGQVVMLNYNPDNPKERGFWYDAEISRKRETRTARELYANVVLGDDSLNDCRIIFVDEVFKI

T3: GST-hUHRF1-TTD (126-280) R207H (human, UniProt Q96T88 126-280, R207H)
T3 construct: Tandem Tudor domain (TTD) of human UHRF1, UniProt Q96T88, residues 126-280; source: E. coli, purified (Glutathione Agarose 4B); not shown: GST, N-terminal, kept
T3 sequence (looked up): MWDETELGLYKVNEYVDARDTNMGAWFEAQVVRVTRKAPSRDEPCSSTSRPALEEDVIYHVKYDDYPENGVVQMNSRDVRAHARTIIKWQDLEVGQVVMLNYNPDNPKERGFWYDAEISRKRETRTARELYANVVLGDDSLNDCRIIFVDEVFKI

T4: GST-hUHRF1-TTD (126-280) R207E (human, UniProt Q96T88 126-280, R207E)
T4 construct: Tandem Tudor domain (TTD) of human UHRF1, UniProt Q96T88, residues 126-280; also called TTD R207E; source: E. coli, purified (Glutathione Agarose 4B); not shown: GST, N-terminal, kept
T4 sequence (looked up): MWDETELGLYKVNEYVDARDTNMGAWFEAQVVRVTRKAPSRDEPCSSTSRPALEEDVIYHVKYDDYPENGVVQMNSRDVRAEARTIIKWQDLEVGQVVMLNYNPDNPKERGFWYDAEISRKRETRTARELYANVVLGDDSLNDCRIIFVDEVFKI

T5: GST-hUHRF1-TTD (126-280) M224A (human, UniProt Q96T88 126-280, M224A)
T5 construct: Tandem Tudor domain (TTD) of human UHRF1, UniProt Q96T88, residues 126-280; source: E. coli, purified (Glutathione Agarose 4B); not shown: GST, N-terminal, kept
T5 sequence (looked up): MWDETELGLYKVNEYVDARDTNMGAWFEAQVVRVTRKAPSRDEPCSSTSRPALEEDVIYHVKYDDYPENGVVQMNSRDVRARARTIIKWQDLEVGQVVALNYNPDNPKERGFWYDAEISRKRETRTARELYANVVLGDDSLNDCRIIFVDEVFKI

T6: GST-hUHRF1-TTD (126-280) F278A (human, UniProt Q96T88 126-280, F278A)
T6 construct: Tandem Tudor domain (TTD) of human UHRF1, UniProt Q96T88, residues 126-280; source: E. coli, purified (Glutathione Agarose 4B); not shown: GST, N-terminal, kept
T6 sequence (looked up): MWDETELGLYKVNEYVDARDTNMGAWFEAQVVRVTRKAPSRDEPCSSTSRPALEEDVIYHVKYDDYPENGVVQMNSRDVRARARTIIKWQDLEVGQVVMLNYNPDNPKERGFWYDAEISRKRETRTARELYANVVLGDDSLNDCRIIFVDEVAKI

T7: GST-hUHRF1-TTD (126-280) D142A (human, UniProt Q96T88 126-280, D142A)
T7 construct: Tandem Tudor domain (TTD) of human UHRF1, UniProt Q96T88, residues 126-280; also called TTD D142A mutant; source: E. coli, purified (Glutathione Agarose 4B); not shown: GST, N-terminal, kept
T7 sequence (looked up): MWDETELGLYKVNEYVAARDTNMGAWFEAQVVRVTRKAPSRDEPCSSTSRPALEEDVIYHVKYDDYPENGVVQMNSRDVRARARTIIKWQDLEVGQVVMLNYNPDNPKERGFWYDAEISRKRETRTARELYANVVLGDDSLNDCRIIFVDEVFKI

T8: GST-hUHRF1-TTD (126-280) D142E (human, UniProt Q96T88 126-280, D142E)
T8 construct: Tandem Tudor domain (TTD) of human UHRF1, UniProt Q96T88, residues 126-280; source: E. coli, purified (Glutathione Agarose 4B); not shown: GST, N-terminal, kept
T8 sequence (looked up): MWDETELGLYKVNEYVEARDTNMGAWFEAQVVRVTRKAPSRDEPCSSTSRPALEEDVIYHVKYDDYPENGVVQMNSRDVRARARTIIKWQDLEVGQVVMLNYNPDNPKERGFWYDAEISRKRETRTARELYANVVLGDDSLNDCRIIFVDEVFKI

T9: GST-hUHRF1-TTD (126-280) D142N (human, UniProt Q96T88 126-280, D142N)
T9 construct: Tandem Tudor domain (TTD) of human UHRF1, UniProt Q96T88, residues 126-280; source: E. coli, purified (Glutathione Agarose 4B); not shown: GST, N-terminal, kept
T9 sequence (looked up): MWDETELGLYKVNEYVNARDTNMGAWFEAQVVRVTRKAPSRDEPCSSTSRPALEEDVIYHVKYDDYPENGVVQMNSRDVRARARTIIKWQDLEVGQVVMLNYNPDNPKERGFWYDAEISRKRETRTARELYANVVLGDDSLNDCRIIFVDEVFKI

T10: GST-hUHRF1-TTD (126-280) E153A (human, UniProt Q96T88 126-280, E153A)
T10 construct: Tandem Tudor domain (TTD) of human UHRF1, UniProt Q96T88, residues 126-280; also called E153A TTD mutant; source: E. coli, purified (Glutathione Agarose 4B); not shown: GST, N-terminal, kept
T10 sequence (looked up): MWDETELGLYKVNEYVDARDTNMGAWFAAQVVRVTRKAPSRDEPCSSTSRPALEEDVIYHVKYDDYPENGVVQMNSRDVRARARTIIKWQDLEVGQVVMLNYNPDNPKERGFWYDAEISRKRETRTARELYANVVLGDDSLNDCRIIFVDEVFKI

T11: GST-hUHRF1-TTD (126-280) E153D (human, UniProt Q96T88 126-280, E153D)
T11 construct: Tandem Tudor domain (TTD) of human UHRF1, UniProt Q96T88, residues 126-280; also called TTD E153D; source: E. coli, purified (Glutathione Agarose 4B); not shown: GST, N-terminal, kept
T11 sequence (looked up): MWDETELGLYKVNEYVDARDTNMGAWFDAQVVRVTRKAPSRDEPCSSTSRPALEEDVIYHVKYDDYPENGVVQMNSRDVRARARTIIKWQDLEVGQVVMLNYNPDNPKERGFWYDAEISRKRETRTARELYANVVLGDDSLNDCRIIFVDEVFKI

T12: GST-hUHRF1-TTD (126-280) E153Q (human, UniProt Q96T88 126-280, E153Q)
T12 construct: Tandem Tudor domain (TTD) of human UHRF1, UniProt Q96T88, residues 126-280; source: E. coli, purified (Glutathione Agarose 4B); not shown: GST, N-terminal, kept
T12 sequence (looked up): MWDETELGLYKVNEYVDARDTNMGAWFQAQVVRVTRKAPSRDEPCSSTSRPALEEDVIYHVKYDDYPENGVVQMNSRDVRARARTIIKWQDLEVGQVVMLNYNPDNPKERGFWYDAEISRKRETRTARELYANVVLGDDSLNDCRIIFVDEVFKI

T13: GST-hUHRF1-TTD (126-280) R207A (human, UniProt Q96T88 126-280, R207A)
T13 construct: Tandem Tudor domain (TTD) of human UHRF1, UniProt Q96T88, residues 126-280; source: E. coli, purified (Glutathione Agarose 4B); not shown: GST, N-terminal, kept
T13 sequence (looked up): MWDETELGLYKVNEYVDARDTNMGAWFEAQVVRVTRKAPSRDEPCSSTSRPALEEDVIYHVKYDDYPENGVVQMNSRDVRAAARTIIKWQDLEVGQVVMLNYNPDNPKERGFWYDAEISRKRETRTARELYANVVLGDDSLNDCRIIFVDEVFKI

T14: GST-hUHRF1-TTD (126-280) R207L (human, UniProt Q96T88 126-280, R207L)
T14 construct: Tandem Tudor domain (TTD) of human UHRF1, UniProt Q96T88, residues 126-280; source: E. coli, purified (Glutathione Agarose 4B); not shown: GST, N-terminal, kept
T14 sequence (looked up): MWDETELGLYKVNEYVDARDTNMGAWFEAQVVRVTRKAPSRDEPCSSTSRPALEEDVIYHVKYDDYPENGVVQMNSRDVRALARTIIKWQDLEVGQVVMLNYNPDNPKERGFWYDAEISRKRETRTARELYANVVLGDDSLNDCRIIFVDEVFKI


How the values were obtained:
Assay in all cases: fluorescence polarisation; fluorescence anisotropy titration; 100 nM FITC-labeled peptide in the cuvette, protein added stepwise; 23°C; 100 mM KCl, 20 mM HEPES pH 7.5, 10% v/v glycerol
Details in all cases: both partners purified
[1] = target: T1, GST-fused Tandem-Tudor domain (TTD) of …
[2] = target: T2, GST-hUHRF1-TTD (126-280) R207Q
[3] = target: T3, GST-hUHRF1-TTD (126-280) R207H
[4] = target: T4, GST-hUHRF1-TTD (126-280) R207E
[5] = target: T5, GST-hUHRF1-TTD (126-280) M224A
[6] = target: T6, GST-hUHRF1-TTD (126-280) F278A
[7] = target: T7, GST-hUHRF1-TTD (126-280) D142A
[8] = target: T8, GST-hUHRF1-TTD (126-280) D142E
[9] = target: T9, GST-hUHRF1-TTD (126-280) D142N
[10] = target: T10, GST-hUHRF1-TTD (126-280) E153A
[11] = target: T11, GST-hUHRF1-TTD (126-280) E153D
[12] = target: T12, GST-hUHRF1-TTD (126-280) E153Q
[13] = target: T13, GST-hUHRF1-TTD (126-280) R207A
[14] = target: T14, GST-hUHRF1-TTD (126-280) R207L

Row | Binder | Kd [1] | Kd [2] | Kd [3] | Kd [4] | Kd [5] | Kd [6] | Kd [7] | Kd [8] | Kd [9] | Kd [10] | Kd [11] | Kd [12] | Kd [13] | Kd [14]
1 | ARTK(Me)QTARK(Me3)STGGKAPRKQ (peptide, UniProt P68431 2-20, looked up, also: FITC-labeled (position not given here), histone H3 N-terminal tail, residues 1-19; also called H3K4me1-K9me3; H3 K4me1-K9me3) [FITC-labeled H3(1-19) peptide with K4me1 and K9me3] | 240 nM | 390 nM | 460 nM | 270 nM | 430 nM | 3900 nM | 2700 nM | 580 nM | 2 nM | 2 nM | 50 nM | 250 nM | 370 nM | 440 nM
2 | ARTKQTARKSTGGKAPRKQ (peptide, UniProt P68431 2-20, looked up, K9me3 (trimethyl-lysine at 9); FITC-labeled, histone H3 N-terminal tail, residues 1-19; also called H3K9me3; H3 K9me3) [FITC-labeled H3(1-19) peptide with K9me3] |  |  |  |  |  |  |  |  |  |  |  |  | 900 nM | 900 nM
